The source of these data is paper PMC6956818, “Activation of JNK and p38 MAPK Mediated by ZDHHC17 Drives Glioblastoma Multiforme Development and Malignant Progression” (Theranostics, 2020).

pIC50: −log10 of the molar value.

The target in assay [1] is T1, ZDHHC17 (Homo sapiens, UniProt Q8IUH5).
T1 construct: purified ZDHHC17 (50 ng) with recombinant MAP2K4; with MAP2K4
In words: ex vivo kinase assay of ZDHHC17-activated MAP2K4 with JNK2 substrate (western blot); supported by co-IP disruption in U118MG cells and ZDHHC17 mutants; no direct binding measurement. The class given is biochemical.

Assay [2] deals with Myc-tagged ZDHHC17 ANK (1-7). As to the kind of experiment: co-immunoprecipitation, quantified immunoblot. As to conditions: HEK293 cell lysates; parent: est. 1.0; read off a plot.

T1 sequence (Q8IUH5 whole entry): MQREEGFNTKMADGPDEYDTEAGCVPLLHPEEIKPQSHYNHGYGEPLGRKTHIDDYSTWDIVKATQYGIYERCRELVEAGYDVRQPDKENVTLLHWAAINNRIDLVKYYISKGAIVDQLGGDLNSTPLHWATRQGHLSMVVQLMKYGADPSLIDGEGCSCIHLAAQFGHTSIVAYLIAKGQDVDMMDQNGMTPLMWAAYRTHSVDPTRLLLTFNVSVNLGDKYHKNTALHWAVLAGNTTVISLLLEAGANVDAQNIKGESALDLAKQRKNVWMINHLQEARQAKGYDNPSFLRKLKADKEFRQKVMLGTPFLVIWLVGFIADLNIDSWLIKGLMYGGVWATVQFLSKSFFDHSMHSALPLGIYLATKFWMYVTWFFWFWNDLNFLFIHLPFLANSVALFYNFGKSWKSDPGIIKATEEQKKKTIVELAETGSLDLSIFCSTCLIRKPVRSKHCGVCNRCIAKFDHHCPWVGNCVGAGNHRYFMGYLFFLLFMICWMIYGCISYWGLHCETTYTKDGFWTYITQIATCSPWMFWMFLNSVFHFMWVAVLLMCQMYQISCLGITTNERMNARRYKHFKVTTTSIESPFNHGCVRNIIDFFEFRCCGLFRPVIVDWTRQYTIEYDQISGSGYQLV
T1 sequence (P45985 2-399 partner): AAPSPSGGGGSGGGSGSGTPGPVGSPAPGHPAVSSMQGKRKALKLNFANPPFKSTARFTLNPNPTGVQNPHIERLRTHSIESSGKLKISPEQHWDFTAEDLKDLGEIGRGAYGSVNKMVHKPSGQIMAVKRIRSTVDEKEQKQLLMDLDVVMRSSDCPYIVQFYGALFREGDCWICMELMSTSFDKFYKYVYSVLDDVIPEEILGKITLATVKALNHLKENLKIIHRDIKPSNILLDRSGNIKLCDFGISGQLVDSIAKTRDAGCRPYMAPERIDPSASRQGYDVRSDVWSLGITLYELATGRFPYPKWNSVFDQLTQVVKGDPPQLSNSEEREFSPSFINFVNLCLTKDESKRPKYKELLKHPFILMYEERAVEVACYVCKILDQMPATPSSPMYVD

`O=c1c(-c2ccc(O)cc2)coc2cc(O)cc(O)c12` [genistein] had a pIC50 in assay [1] of 6.10.
For the molecule “FLAG-tagged MAP2K4 protein kinase c (PKc) domain fragment E221G”, in assay [2], the ratio to parent was 0.85.
The same measure, in the same setting: the value for “FLAG-tagged MAP2K4 protein kinase c (PKc) domain fragment M153G” was 0.5; that for “FLAG-tagged MAP2K4 protein kinase c (PKc) domain fragment N222G” was 0.35.
Still for that read-out and setting: the value for “FLAG-tagged MAP2K4 protein kinase c (PKc) domain fragment R154G” was 0.73.
For “FLAG-tagged MAP2K4 protein kinase c (PKc) domain fragment S80G”, the ratio to parent in assay [2] was determined as 0.83.
Regarding “FLAG-tagged MAP2K4 protein kinase c (PKc) domain fragment W95G”, the ratio to parent in assay [2] is 0.47.
